Data taken from patent US20230321261A1, “AXL-SPECIFIC ANTIBODY-DRUG CONJUGATES FOR CANCER TREATMENT” (GENMAB A/S, priority 2016, published 2023).
Substitutions are numbered along the chain they refer to. In names and notes the source's numbering stands.

B1: IgG1-AXL-733: AXL-specific human IgG1,κ antibody, VH SEQ ID NO:34, VL SEQ ID NO:35, FN1 domain binding (antibody, listed as Homo sapiens, V domains shown)
VH: QVQLVESGGGVVQPGRSLRLSCAASGFSFSTYAMHWVRQAPGKGLEWVAVISYDGDNKYSADSVKGRFTISRDNSKNTLYLQMNSLRAEDTAVYYCARGRKLGIDAFDIWGQGTMVTVSS
VL: AIQLTQSPSSLSASVGDRVTITCRASQGISSALAWYQQKPGKAPKLLIYDASSLESGVPSRFSGSGSGTDFTLTISGLQPEDFATYYCQQFNSYPFTFGPGTKVDIK
B2: IgG1-AXL-511: AXL-specific human IgG1,κ antibody, VH SEQ ID NO:136, VL SEQ ID NO:140, Ig2 domain binding (antibody, listed as Homo sapiens, V domains shown)
VH: EVQLLESGGGLVQPGGSLRLSCAASGFTFSSYAMNWVRQAPGKGLEWVSGISGSGGHTYHADSVKGRFTISRDNSKNTLYLQMNSLRAEDTAVYYCAKDRYDILTGYYNLLDYWGQGTLVTVSS
VL: DIQMTQSPSSLSASVGDRVTITCRASQGISSWLAWYQQKPEEAPKSLIYAASSLQSGVPSRFSGSGSGTDFTLTISSLQPEDFATYYCQQYNSYPLTFGGGAKVEIK
B3: IgG1-AXL-726-vcMMAE (conjugate)
VH: QVQLQQWGAGLLKPSETLSLTCAIDGGSFSGYYWSWIRQPPGKGLEWIGEISHSGRTNYNPSLKSRVTISIDTSKNQFSLKLSSVAAADTAVYYCARFITMIRGAIITHFDYWGQGALVTVSS
VL: B2 VL with E42K, N92H, L96Y, G100Q, A102T, V104L
B4: IgG1-AXL-140: AXL-specific human IgG1,κ antibody, VH SEQ ID NO:3, VL SEQ ID NO:4 (antibody, listed as Homo sapiens, V domains shown)
VH: EVQLLESGGGLVQPGGSLRLSCAASGFTFSSYAMTWVRQAPGKGLEWVSAISISGASTFYADSVKGRFTISRDNSKNTLSLQMNSLRAEDTAVYFCRGYSGYVYDAFDIWGQGTMVTVSS
VL: B2 VL with S31N, E42K, A102T
B5: IgG1-AXL-187: AXL-specific human IgG1,κ antibody, VH SEQ ID NO:19, VL SEQ ID NO:20 (antibody, listed as Homo sapiens, V domains shown)
VH: B3 VH with Q3P, I24V, D25Y, Y33H, A86T, R97S, A105T, A117T
VL: B2 VL with E42K, N92H, L96Y, G100Q, A102T, V104L
B6: IgG1-AXL-183: AXL-specific human IgG1,κ antibody, VH SEQ ID NO:16, VL SEQ ID NO:18, FN1 domain binding (antibody, listed as Homo sapiens, V domains shown)
VH: QVQLQQWGAGLLKPSETLSLTCAVYGGSFSGYYWSWIRQPPGKGLEWIGEINQSGSTNYNPSLKSRVTISVDTSKNQFSLKLSSVTAADTSVYYCASGNWDHFFDYWGQGTLVTVSS
VL: DIQMTQSPSSVSASVGDRVTITCRASQGISSWLAWYQHKPGKAPKLLIYATSSLQSGVTSRFSGSGSGTDFTLTISSLQPEDFATYYCQQAKSFPWTFGQGTKVEIK
B7: IgG1-AXL-183-vcMMAE (conjugate)
VH: B6 VH
VL: B6 VL
B8: IgG1-AXL-183-N52Q: point mutant of IgG1-AXL-183, VH SEQ ID NO:17, VL SEQ ID NO:18 (antibody, listed as Homo sapiens, V domains shown)
VH: B6 VH with N52Q
VL: B6 VL

Experiments:
[1] = target: T1, Gas6 binding to AXL on A431 cells (Homo sapiens, UniProt P30530); test: Gas6 binding to A431 cells pre-incubated with AXL antibodies; conditions: pre-incubation with 10 µg/mL antibody; control antibody b12
T1 construct: endogenous in cells; host or cells: A431
Description: Alternatively, A431 cells were pre-incubated with 10 µg/mL AXL antibodies (15 minutes, 4° C.) to assess if the AXL ligand Gas6 could still bind in presence of AXL antibodies. […] After washing three times in PBS/0.1% BSA/0.02% azide, cells were incubated with mouse anti-Gas6 IgG2a (R&D Systems; cat no. MAB885) at 4° C. for 30 min. After washing three times in PBS/0.1% BSA/0.02% azide, cells were incubated with FITC-labelled goat anti-mouse IgG (Dako, Heverlee, Belgium; cat no. F049702) at 4° C. for 30 min in the dark. Next, cells were washed twice in PBS/0.1% BSA/0.02% azide, resuspended in 120 µL PBS/0.1% BSA/0.02% azide and analyzed on a FACS Cantoll (BD Biosciences).
(§1) Binding curves were analyzed using non-linear regression (sigmoidal dose-response with variable slope) using GraphPad Prism V5.04 software (GraphPad Software, San Diego, CA, USA).
Therefore, binding of Gas6 to A431 cells that had been pre-incubated with 10 µg/mL AXL antibodies was tested as described in Example 2.

[2] = target: T2, full length human AXL (Homo sapiens, UniProt P30530); test: Flow cytometry binding to transfected HEK293T cells; conditions: at least 3 experiments
T2 construct: expression constructs for full length human AXL; expressed in transfected cells; host or cells: HEK293T
Description: HEK293T cells were transiently transfected with expression constructs for full length human AXL, human AXL with a cynomolgus monkey extracellular domain (ECD) or human AXL with a mouse ECD (see Example 1). Binding of HuMab-AXL antibodies to these cells was evaluated by flow cytometry. Transfected HEK293 cells were incubated with serial dilutions of AXL-antibodies (final concentration range 0.0024-10 µg/mL) for 30 minutes at 4° C. […] Next, cells were washed twice in PBS/0.1% BSA/0.02% azide, resuspended in 120 µL PBS/0.1% BSA/0.02% azide and analyzed on a FACS Cantoll (BD Biosciences).
as §1

[3] = target: T3, AXLECDHis (extracellular domain of human AXL) (Homo sapiens, UniProt P30530); test: Binding affinity by Bio-Layer Interferometry (ForteBio OctetRED384); conditions: 1:1 model, 30° C.
T3 construct: the extracellular domain (ECD) of human AXL (aa 1-447) with a C-terminal His tag (AXLECDHis); His tag (C); made in house; host or cells: HEK-293F

[4] = target: T4, AXL on A431 cells (Homo sapiens, UniProt P30530); test: Antibody binding to A431 cells with or without Gas6 pre-incubation; conditions: for Antibody binding to A431 cells: EC50 in presence of Gas6 (µg/mL) mean (s.d.) / Antibody binding to A431 cells: Maximal binding in presence of Gas6 (% of binding in absence of Gas6) mean (s.d.): pre-incubation with 10 µg/mL Gas6; for Antibody binding to A431 cells: EC50 w/o Gas6 (µg/mL) mean (s.d.): without Gas6 pre-incubation
T4 construct: AXL-positive A431 cells were incubated; endogenous in cells; host or cells: A431

[5] = target: T5, human-mouse chimeric AXL mutants (Homo sapiens, UniProt P30530, A273L/A287V/A310S/E275K/E281D/G297E/H300L/L233V/M269V/N230H/P276S/P329T/Q227R/Q272W/R229H/S285L/S298K/S319P/T259N/T312S/V309I); test: AXL domain specificity using human-mouse AXL chimeric molecules (flow cytometry); type: binding; conditions: 1 µg/mL antibody
T5 construct: constructs for expression of various full-length AXL variants were generated; expressed in transfected cells; host or cells: HEK293F

[6] = target: T6, human AXL with a cynomolgus monkey extracellular domain (ECD) (Homo sapiens, UniProt P30530, P441T/S191N/S285L/T105A/T112A/T125N/T443A); test: Flow cytometry binding to transfected HEK293T cells; conditions: at least 3 experiments
T6 construct: aa 1-447); human AXL transmembrane and intracellular part (the remainder of human AXL after the ECD; expressed in transfected cells; host or cells: HEK293T

[7] = tested on: A431 tumors; test: A431 xenograft model (high Gas6); type: in vivo, SCID mice; conditions: 3 mg/kg
Description: (§2) Tumor induction was performed by subcutaneous injection of 5 × 10^6 A431 or LCLC-103H tumor cells (both obtained from Leibniz-Institut - Deutsche Sammlung von Mikroorganismen und Zellkulturen GmbH (DSMZ)) in 200 µL PBS in the right flank of female SCID mice. Treatment was started 14-21 days after tumor cell inoculation, when the average tumor size was >100-200 mm^3 and distinct tumor growth was observed. Mice received a single injection or a total of 4 biweekly intraperitoneal injections with IgG1-AXL-vcMMAE ADCs or control antibody (unconjugated IgG1-b12), as indicated. Tumor volume was determined at least two times per week. Tumor volumes (mm^3) were calculated from caliper (PLEXX) measurements as: 0.52 × (length) × (width)^2.

[8] = tested on: LCLC-103H xenograft tumors; test: LCLC-103H xenograft model; type: in vivo, SCID mice; conditions: 3 mg/kg (Example 13, FIG. 14A)
Description: 5 × 10^6 LCLC-103H (large cell lung carcinoma) tumor cells (obtained from Leibniz-Institut DSMZ-Deutsche Sammlung von Mikroorganismen und Zellkulturen GmbH (DSMZ)) in 200 µL PBS were injected subcutaneously in the right flank of female SCID mice. Starting 14-21 days after tumor cell inoculation, when the average tumor size was >100-200 mm^3 and distinct tumor growth was observed, a single injection with 1 mg/kg (20 µg/mouse) IgG1-AXL-vcMMAE antibodies (as described in Supplementary Example 1) or control (unconjugated IgG1-b12) was given intraperitoneally (100 µL/mouse). Tumor volume was determined at least two times per week. Tumor volumes (mm^3) were calculated from caliper (PLEXX) measurements as: 0.52 × (length) × (width)^2.
as §2

[9] = target: T7, human AXL transiently expressed by HEK-293F cells (Homo sapiens, UniProt P30530); test: Homogeneous antigen specific screening assay (FMAT); type: binding
T7 construct: TH1021-AXL (HEK-293F cells transiently expressing full length human AXL; produced as described above); expressed in transfected cells; host or cells: HEK-293F

Molecule	Gas6 binding to A431 cells: Maximal binding in presence of AXL antibodies (% of binding in presence of control antibody) mean (s.d.) [1]	Binding EC50 (µg/mL) human AXL Average (s.d.) [2]	Binding affinity (OCTET) Kdis [3]	Binding affinity (OCTET) Kon [3]	Antibody binding to A431 cells: EC50 in presence of Gas6 (µg/mL) mean (s.d.) [4]	Antibody binding to A431 cells: Maximal binding in presence of Gas6 (% of binding in absence of Gas6) mean (s.d.) [4]	Antibody binding to A431 cells: EC50 w/o Gas6 (µg/mL) mean (s.d.) [4]	Binding EC50 (µg/mL) cynomolgus AXL Average (s.d.) [6]	further results
B1	96 (5) %	0.176 (0.094) µg/mL	0.0097 s⁻¹	160000 M⁻¹ s⁻¹	0.62 (0.23) µg/mL	93 (5) %	0.49 (0.51) µg/mL	0.254 (0.114) µg/mL	binding to hsAXL-mmFN1 [5]: reduced binding
B2	113 (6) %		0.0039 s⁻¹	170000 M⁻¹ s⁻¹	0.30 (0.31) µg/mL	93 (15) %	0.12 (0.11) µg/mL		
B3									anti-tumor activity in the A431 xenograft model [7]: growth inhibition; anti-tumor activity in the LCLC-103H xenograft model [8]: tumor regression
B4									Maximal binding (Arbitrary units) [9]: 2889 Arbitrary units
B5									Maximal binding (Arbitrary units) [9]: 2563 Arbitrary units
B6	115 (8) %	0.526 (0.177) µg/mL	0.00042 s⁻¹		1.19 (1.11) µg/mL	90 (19) %	0.69 (0.72) µg/mL	0.309 (0.086) µg/mL	binding to hsAXL-mmFN1 [5]: reduced binding
B7									anti-tumor activity in the A431 xenograft model [7]: growth inhibition; anti-tumor activity in the LCLC-103H xenograft model [8]: tumor regression
B8		0.350 (0.206) µg/mL	0.001 s⁻¹	42000 M⁻¹ s⁻¹				0.324 (0.121) µg/mL	
